Measured values as given in the supplement of paper PMC7877785.
± gives the uncertainty stated by the source.

Assay: self-splicing fitness, log relative to wild type (ln ratio); higher = more splicing; Tetrahymena group I intron in knt gene, E. coli kanamycin selection, DiMSum; sequences stand for … in CUCUCU…GGAGGGAAAAGUUAUCAGGCAUGCACCUGGUAGCUAGUCUUUAAACCAAUAGAUUGCAUCGGUUUAAAAGGCAAGACCGUCAAAUUGCGGGAAAGGGGUCAACAGCCGUUCAGUACCAAGUCUCAGGGGAAACUUUGAGAUGGCCUUGCAAAGGGUAUGGUAAUAAGCUGACGGACAUGGUCCUAACCACGCAGCCAAGUCCUAAGUCAACAGAUCUUCUGUUGAUAUGGAUGCAGUUCACAGACUAAAUGUCGGUCGGGGAAGAUGUAUUCUUCUCAUAAGAUAUAGUCGGACCUCUCCUUAAUGGGAGCUAGCGGAUGAAGUGAUGCAACACUGGAGCCGCUGGGAACUAAUUUGUAUGCGAAAGUAUAUUGAUUAGUUUUGGAGUACUCGUGGUCG
Summary of the method: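 DiMSum derived fitness as the error-weighted combination of fold changes across replicates, kanamycin versus no kanamycin, normalised to wild type. E. coli BL21(DE3) held the library, which randomised all eight P1ex-region intron nucleotides within the knt kanamycin-resistance gene on pET-22b(+). Six replicate transformations grew overnight at 37°C or 30°C on LB agar with or without 25 μg/mL kanamycin, also containing 100 μg/mL carbenicillin, 50 μM IPTG and 0.2% rhamnose, and pooled colonies were amplicon-sequenced on an Illumina HiSeq 2500.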

Sequence	self-splicing fitness (ln) (37 °C)	self-splicing fitness (ln) (30 °C)
GUAGAGCAAUAUUACGAGAG	-2.05 ± 0.36	–
GUAGAGCAAUAUUACGAUAC	-0.561 ± 0.18	-1.42 ± 0.13
GUAGAGCAAUAUUACGAUUU	-0.037 ± 0.21	-1.13 ± 0.12
GUAGAGCAAUAUUACGCAUA	-1.59 ± 0.17	-1.58 ± 0.14
GUAGAGCAAUAUUACGCCAC	–	-1.7 ± 0.29
GUAGAGCAAUAUUACGCGAA	-0.709 ± 0.077	-1.12 ± 0.058
GUAGAGCAAUAUUACGCGAG	-0.548 ± 0.14	-1.69 ± 0.14
GUAGAGCAAUAUUACGCGUA	-0.093 ± 0.25	-1.64 ± 0.2
GUAGAGCAAUAUUACGGAAA	-2.18 ± 0.22	-2.18 ± 0.28
GUAGAGCAAUAUUACGGUAU	-0.286 ± 0.1	-1.38 ± 0.083
GUAGAGCAAUAUUACGGUCA	-0.0887 ± 0.12	-1.47 ± 0.098
GUAGAGCAAUAUUACGGUCU	-0.783 ± 0.14	-1.46 ± 0.1
GUAGAGCAAUAUUACGUCAA	-2.38 ± 0.29	-2.01 ± 0.14
GUAGAGCAAUAUUACGUCUA	-0.919 ± 0.13	-1.34 ± 0.11
GUAGAGCAAUAUUACGUCUC	-0.305 ± 0.099	-0.285 ± 0.092
GUAGAGCAAUAUUACGUGAU	-1.36 ± 0.19	-2.29 ± 0.2
GUAGAGCAAUAUUACGUGGG	-2.08 ± 0.2	-2.75 ± 0.17
GUAGAGCAAUAUUACGUGUU	-2.04 ± 0.19	-3.68 ± 0.21
GUAGAGCAAUAUUACGUUCA	-0.627 ± 0.11	-0.476 ± 0.1
GUAGAGCAAUAUUACGUUUA	-1.39 ± 0.17	-2.09 ± 0.17
GUAUAGCAAUAUUACGAAAA	-1.18 ± 0.22	–
GUAUAGCAAUAUUACGAAAG	-2.06 ± 0.35	-3.15 ± 0.43
GUAUAGCAAUAUUACGAACA	-1.21 ± 0.27	-2.44 ± 0.27
GUAUAGCAAUAUUACGAACG	–	-1.91 ± 0.32
GUAUAGCAAUAUUACGAAGG	-1.61 ± 0.29	-3.44 ± 0.36
GUAUAGCAAUAUUACGAGAA	-2.32 ± 0.49	–

Sequence	self-splicing fitness (ln) (37 °C)	self-splicing fitness (ln) (30 °C)
GUAUAGCAAUAUUACGAGGG	-0.987 ± 0.23	-3.15 ± 0.26
GUAUAGCAAUAUUACGAUAA	-0.771 ± 0.16	-0.869 ± 0.12
GUAUAGCAAUAUUACGCACG	-0.994 ± 0.3	-1.99 ± 0.19
GUAUAGCAAUAUUACGCAGG	-3.36 ± 0.47	-3.15 ± 0.45
GUAUAGCAAUAUUACGCAUG	-1.01 ± 0.17	-3.35 ± 0.24
GUAUAGCAAUAUUACGCCUA	-0.116 ± 0.22	-1.64 ± 0.27
GUAUAGCAAUAUUACGCCUG	-0.647 ± 0.1	-2.67 ± 0.11
GUAUAGCAAUAUUACGCCUU	-0.499 ± 0.24	-2.11 ± 0.29
GUAUAGCAAUAUUACGCGAG	-1.47 ± 0.12	-1.31 ± 0.11
GUAUAGCAAUAUUACGCGCA	-0.955 ± 0.14	-1.2 ± 0.17
GUAUAGCAAUAUUACGCGGA	-0.662 ± 0.2	-3.08 ± 0.33
GUAUAGCAAUAUUACGCGUC	-0.113 ± 0.24	-2.87 ± 0.27
GUAUAGCAAUAUUACGGGGG	-2.53 ± 0.48	-3.63 ± 0.37
GUAUAGCAAUAUUACGGUAG	-1.23 ± 0.15	-1.43 ± 0.095
GUAUAGCAAUAUUACGGUGC	-1.76 ± 0.36	-2.45 ± 0.23
GUAUAGCAAUAUUACGUACA	-0.449 ± 0.23	-2.07 ± 0.28
GUAUAGCAAUAUUACGUACU	-2.05 ± 0.2	-3.8 ± 0.39
GUAUAGCAAUAUUACGUAUC	-0.978 ± 0.2	-2.07 ± 0.18
GUAUAGCAAUAUUACGUCCG	-1.21 ± 0.17	-2.98 ± 0.18
GUAUAGCAAUAUUACGUGCC	-2.54 ± 0.31	-3.23 ± 0.34
GUAUAGCAAUAUUACGUGGU	-1.29 ± 0.15	-3.14 ± 0.23
GUAUAGCAAUAUUACGUGUU	-1.63 ± 0.18	-3.38 ± 0.18
GUCAAGCAAUAUUACGAAAG	-1.39 ± 0.49	-3.72 ± 0.4
GUCAAGCAAUAUUACGAAUA	-1.42 ± 0.14	-1.85 ± 0.16
GUCAAGCAAUAUUACGACGC	0.832 ± 0.18	-1.35 ± 0.11
GUCAAGCAAUAUUACGACGU	0.099 ± 0.07	-1.26 ± 0.056

Sequence	self-splicing fitness (ln) (37 °C)	self-splicing fitness (ln) (30 °C)
GUCAAGCAAUAUUACGAGCA	-2.29 ± 0.28	-1 ± 0.35
GUCAAGCAAUAUUACGAGGC	-2.83 ± 0.18	-3.94 ± 0.24
GUCAAGCAAUAUUACGCAUC	-1.74 ± 0.18	-3.22 ± 0.13
GUCAAGCAAUAUUACGCCAA	-1.52 ± 0.28	–
GUCAAGCAAUAUUACGCCUG	-2.6 ± 0.22	-3.6 ± 0.25
GUCAAGCAAUAUUACGCGUG	-1.78 ± 0.16	-2.92 ± 0.16
GUCAAGCAAUAUUACGCGUU	-0.761 ± 0.097	-2.07 ± 0.076
GUCAAGCAAUAUUACGCUUU	-1.73 ± 0.16	-2.41 ± 0.21
GUCAAGCAAUAUUACGGAAC	-3.19 ± 0.21	-3.13 ± 0.24
GUCAAGCAAUAUUACGGCUC	0.181 ± 0.084	-0.927 ± 0.057
GUCAAGCAAUAUUACGGGUG	-2.73 ± 0.17	-4.19 ± 0.24
GUCAAGCAAUAUUACGGUCU	-0.906 ± 0.075	-2.7 ± 0.084
GUCAAGCAAUAUUACGGUGU	-0.734 ± 0.083	-2.05 ± 0.071
GUCAAGCAAUAUUACGGUUC	-0.255 ± 0.1	-0.665 ± 0.068
GUCAAGCAAUAUUACGUACG	-1.9 ± 0.17	-2.46 ± 0.14
GUCAAGCAAUAUUACGUAUG	-2.6 ± 0.11	-4.08 ± 0.13
GUCAAGCAAUAUUACGUCAG	-3.26 ± 0.37	-3.55 ± 0.23
GUCAAGCAAUAUUACGUCCU	-1.04 ± 0.11	-2.13 ± 0.11
GUCAAGCAAUAUUACGUGCG	-0.638 ± 0.1	-2.29 ± 0.1
GUCAAGCAAUAUUACGUUAG	-3.3 ± 0.23	-4.36 ± 0.24
GUCCAGCAAUAUUACGAAUC	0.114 ± 0.2	0.437 ± 0.16
GUCCAGCAAUAUUACGACCA	-0.517 ± 0.17	-0.7 ± 0.21
GUCCAGCAAUAUUACGAGAG	0.117 ± 0.077	-1.15 ± 0.078
GUCCAGCAAUAUUACGAGGC	-2.35 ± 0.37	-2.32 ± 0.22
GUCCAGCAAUAUUACGAUAC	-0.0588 ± 0.099	-0.876 ± 0.082
